Source: patent US20130209454A1

Key:
Test in all cases: cell-based or functional assay
[1] = target: HIV-1 Env of strain Du156.12 (HIV-1)
[2] = target: HIV-1 Env of strain ZM249M.PL1 (HIV-1)
[3] = target: HIV-1 Env of strain Q461.e2 (HIV-1)
[4] = target: HIV-1 Env of strain Ce1176_A3 (HIV-1)
[5] = target: HIV-1 Env of strain SC422661.8 (HIV-1)
[6] = target: HIV-1 strain 0815.v3.c3 envelope (gp120) (HIV-1)
[7] = target: HIV-1 Env of strain 1006_11_C3_1601 (HIV-1)
[8] = target: HIV-1 Env of strain 62357_14_D3_4589 (HIV-1)
[9] = target: HIV-1 Env of strain C2101.c01 (HIV-1)
[10] = target: HIV-1 strain AC10.0.29 envelope (gp120) (HIV-1)
[11] = target: HIV-1 Env of strain RHPA4259.7 (HIV-1)
[12] = target: HIV-1 strain P1981_C5_3 envelope (gp120) (HIV-1)
[13] = target: HIV-1 strain Du156.12 envelope (gp120) (HIV-1)
[14] = target: HIV-1 strain 0330.v4.c3 envelope (gp120) (HIV-1)
[15] = target: HIV-1 strain ZM53M.PB12 envelope (gp120) (HIV-1)
[16] = target: HIV-1 Env of strain 89-F1_2_25 (HIV-1)
[17] = target: HIV-1 Env of strain 1056_10_TA11_1826 (HIV-1)
[18] = target: HIV-1 Env of strain ZM233M.PB6 (HIV-1)
[19] = target: HIV-1 strain Ce0682_E4 envelope (gp120) (HIV-1)
[20] = target: HIV-1 Env of strain T255-34 (HIV-1)
[21] = target: HIV-1 Env of strain CNE17 (HIV-1)
[22] = target: HIV-1 strain SC422661.8 envelope (gp120) (HIV-1)
[23] = target: HIV-1 strain 620345.c01 envelope (gp120) (HIV-1)
[24] = target: HIV-1 Env of strain 211-9 (HIV-1)
[25] = target: HIV-1 Env of strain 6540.v4.cl (HIV-1)
[26] = target: HIV-1 strain ZM214M.PL15 envelope (gp120) (HIV-1)
[27] = target: HIV-1 strain 1056_10_TA11_1826 envelope (gp120) (HIV-1)
[28] = target: HIV-1 strain 6480.v4.c25 envelope (gp120) (HIV-1)
[29] = target: HIV-1 Env of strain WITO4160.33 (HIV-1)
[30] = target: HIV-1 Env of strain Q259.d2.17 (HIV-1)
[31] = target: HIV-1 strain Q259.d2.17 envelope (gp120) (HIV-1)
[32] = target: HIV-1 strain REJO4541.67 envelope (gp120) (HIV-1)
[33] = target: HIV-1 Env of strain T278-50 (HIV-1)
[34] = target: HIV-1 Env of strain 3718.v3.c11 (HIV-1)
[35] = target: HIV-1 strain Q769.d22 envelope (gp120) (HIV-1)
[36] = target: HIV-1 strain PVO.4 envelope (gp120) (HIV-1)
[37] = target: HIV-1 strain TRJO4551.58 envelope (gp120) (HIV-1)
[38] = target: HIV-1 strain RHPA4259.7 envelope (gp120) (HIV-1)
[39] = target: HIV-1 Env of strain T257-31 (HIV-1)
[40] = target: HIV-1 Env of strain AC10.0.29 (HIV-1)
[41] = target: HIV-1 strain 3103.v3.c10 envelope (gp120) (HIV-1)
[42] = target: HIV-1 strain Ce0393_C3 envelope (gp120) (HIV-1)
[43] = target: HIV-1 Env of strain CNE20 (HIV-1)
[44] = target: HIV-1 strain R1166.c01 envelope (gp120) (HIV-1)
[45] = target: HIV-1 strain 231966.c02 envelope (gp120) (HIV-1)
[46] = target: HIV-1 Env of strain P0402_c2_11 (HIV-1)
[47] = target: HIV-1 strain CNE30 envelope (gp120) (HIV-1)
[48] = target: HIV-1 strain X1254_c3 envelope (gp120) (HIV-1)
[49] = target: HIV-1 strain Q23.17 envelope (gp120) (HIV-1)
[50] = target: HIV-1 strain Du172.17 envelope (gp120) (HIV-1)

B1: NIH45-46^G54Y IgG (antibody, name in Kabat numbering, V domains shown)
VH: QVRLSQSGGQMKKPGESMRLSCRASGYEFLNCPINWIRLAPGRRPEWMGWLKPRYGAVNYARKFQGRVTMTRDVYSDTAFLELRSLTSDDTAVYFCTRGKYCTARDYYNWDFEHWGRGAPVTVSS
VL: EIVLTQSPATLSLSPGETAIISCRTSQSGSLAWYQQRPGQAPRLVIYSGSTRAAGIPDRFSGSRWGADYNLSISNLESGDFGVYYCQQYEFFGQGTKVQVDI
neutralization IC50 [1]: 0.007 µg/mL | neutralization IC50 [2]: 0.003 µg/mL | neutralization IC50 [3]: 0.023 µg/mL | neutralization IC50 [4]: 0.21 µg/mL | neutralization IC50 [5]: 0.04 µg/mL | neutralization IC80 [6]: 0.015 µg/mL | neutralization IC50 [7]: 0.005 µg/mL | neutralization IC50 [8]: 0.03 µg/mL | neutralization IC50 [9]: 0.09 µg/mL | neutralization IC80 [10]: 0.9 µg/mL | neutralization IC50 [11]: 0.007 µg/mL | neutralization IC80 [12]: 0.09 µg/mL | neutralization IC80 [13]: 0.026 µg/mL | neutralization IC80 [14]: 0.09 µg/mL | neutralization IC80 [15]: 0.22 µg/mL | neutralization IC50 [16]: > 50 µg/mL | neutralization IC50 [17]: 0.044 µg/mL | neutralization IC50 [18]: 0.16 µg/mL | neutralization IC80 [19]: 0.065 µg/mL | neutralization IC50 [20]: 0.04 µg/mL | neutralization IC50 [21]: 0.073 µg/mL | neutralization IC80 [22]: 0.09 µg/mL | neutralization IC80 [23]: > 50 µg/mL | neutralization IC50 [24]: > 50 µg/mL | neutralization IC50 [25]: > 50 µg/mL | neutralization IC80 [26]: 0.23 µg/mL | neutralization IC80 [27]: 0.189 µg/mL | neutralization IC80 [28]: 0.051 µg/mL | neutralization IC50 [29]: 0.03 µg/mL | neutralization IC50 [30]: 0.009 µg/mL | neutralization IC80 [31]: 0.034 µg/mL | neutralization IC80 [32]: 0.02 µg/mL | neutralization IC50 [33]: > 50 µg/mL | neutralization IC50 [34]: 0.3 µg/mL | neutralization IC80 [35]: 0.024 µg/mL | neutralization IC80 [36]: 0.18 µg/mL | neutralization IC80 [37]: 0.07 µg/mL | neutralization IC80 [38]: 0.02 µg/mL | neutralization IC50 [39]: 0.18 µg/mL | neutralization IC50 [40]: 0.19 µg/mL | neutralization IC80 [41]: 0.81 µg/mL | neutralization IC80 [42]: 0.134 µg/mL | neutralization IC50 [43]: 0.33 µg/mL | neutralization IC80 [44]: 0.84 µg/mL | neutralization IC80 [45]: 0.23 µg/mL | neutralization IC50 [46]: 0.012 µg/mL | neutralization IC80 [47]: 0.263 µg/mL | neutralization IC80 [48]: 0.041 µg/mL | neutralization IC80 [49]: 0.06 µg/mL | neutralization IC80 [50]: > 50 µg/mL

B2: NIH45-46^G54W(HC), S28Y(LC) (antibody, V domains shown)
VH: QVRLSQSGGQMKKPGESMRLSCRASGYEFLNCPINWIRLAPGRRPEWMGWLKPRWGAVNYARKFQGRVTMTRDVYSDTAFLELRSLTSDDTAVYFCTRGKYCTARDYYNWDFEHWGRGAPVTVSS
VL: EIVLTQSPATLSLSPGETAIISCRTSQYGSLAWYQQRPGQAPRLVIYSGSTRAAGIPDRFSGSRWGADYNLSISNLESGDFGVYYCQQYEFFGQGTKVQVDI
IC50, pseudovirus neutralization [1]: 0.003 µg/mL | IC50, pseudovirus neutralization [2]: 0.001 µg/mL | IC50, pseudovirus neutralization [3]: 0.034 µg/mL | IC50, pseudovirus neutralization [4]: 0.172 µg/mL | IC50, pseudovirus neutralization [5]: 0.024 µg/mL | IC50, pseudovirus neutralization [7]: 0.009 µg/mL | IC50, pseudovirus neutralization [8]: 0.015 µg/mL | IC50, pseudovirus neutralization [9]: 0.044 µg/mL | IC50, pseudovirus neutralization [11]: 0.001 µg/mL | IC50, pseudovirus neutralization [16]: > 50 µg/mL | IC50, pseudovirus neutralization [17]: 0.057 µg/mL | IC50, pseudovirus neutralization [18]: 0.011 µg/mL | IC50, pseudovirus neutralization [20]: 0.013 µg/mL | IC50, pseudovirus neutralization [21]: 0.064 µg/mL | IC50, pseudovirus neutralization [24]: 0.253 µg/mL | IC50, pseudovirus neutralization [29]: 0.015 µg/mL | IC50, pseudovirus neutralization [30]: 0.001 µg/mL | IC50, pseudovirus neutralization [33]: > 50 µg/mL | IC50, pseudovirus neutralization [39]: 0.126 µg/mL | IC50, pseudovirus neutralization [40]: 0.118 µg/mL | IC50, pseudovirus neutralization [43]: 0.001 µg/mL | IC50, pseudovirus neutralization [46]: 0.01 µg/mL

B3: NIH45-46^G54W (antibody, V domains shown)
VH: QVRLSQSGGQMKKPGESMRLSCRASGYEFLNCPINWIRLAPGRRPEWMGWLKPRWGAVNYARKFQGRVTMTRDVYSDTAFLELRSLTSDDTAVYFCTRGKYCTARDYYNWDFEHWGRGAPVTVSS
VL: EIVLTQSPATLSLSPGETAIISCRTSQSGSLAWYQQRPGQAPRLVIYSGSTRAAGIPDRFSGSRWGADYNLSISNLESGDFGVYYCQQYEFFGQGTKVQVDI
IC50, pseudovirus neutralization [1]: 0.001 µg/mL | IC50, pseudovirus neutralization [2]: 0.002 µg/mL | IC50, pseudovirus neutralization [3]: 0.009 µg/mL | IC50, pseudovirus neutralization [4]: 0.16 µg/mL | IC50, pseudovirus neutralization [5]: 0.02 µg/mL | IC50, pseudovirus neutralization [7]: 0.001 µg/mL | IC50, pseudovirus neutralization [8]: 0.02 µg/mL | IC50, pseudovirus neutralization [9]: 0.04 µg/mL | IC50, pseudovirus neutralization [11]: 0.001 µg/mL | IC50, pseudovirus neutralization [16]: > 50 µg/mL | IC50, pseudovirus neutralization [17]: 0.024 µg/mL | IC50, pseudovirus neutralization [18]: 0.02 µg/mL | IC50, pseudovirus neutralization [20]: 0.001 µg/mL | IC50, pseudovirus neutralization [21]: 0.036 µg/mL | IC50, pseudovirus neutralization [24]: 16.4 µg/mL | IC50, pseudovirus neutralization [29]: 0.01 µg/mL | IC50, pseudovirus neutralization [30]: 0.001 µg/mL | IC50, pseudovirus neutralization [33]: > 50 µg/mL | IC50, pseudovirus neutralization [39]: 0.13 µg/mL | IC50, pseudovirus neutralization [40]: 0.13 µg/mL | IC50, pseudovirus neutralization [43]: 0.04 µg/mL | IC50, pseudovirus neutralization [46]: 0.003 µg/mL
